Measured values published in the DeepSol protein solubility set.

assay: soluble on expression in E. coli; label from the status in PepcDB or PDB records

Sequence	soluble on expression in E. coli
MGSDKIHHHHHHMLLGSFQSVLEARNRDEFRGEVVRFAKRLGFETVSAITVVDHPVGDTEFVAIDNAPDAYKDAIEDPKAGQLDPVMQHCKRQSVPIIWDQSTYVSAGQGSMWEAQARFGFRTGICLALHMPEGRHFVIGVDRDQALPKDRGEVTRLVADLQLFAVHAQDTAMRVLVPERLQLERPKLTPRELDSLRWTMDGKTAWEVGSIMGISERTAVLHINNAMHKLACTNKHQAVLKALRLGLLR	not soluble
MGSKTKKSFTVLLAFIMSFSVTGCFDKREIDDLVNPIAIGFDKGSNHSVRMTLQIAIPTKVAGGGEGGGGGGGEESVSYTTVEAPSIYSGLNMINSYVSKQLNMSQIKVLVFSEELAREGIEKYINALMRGREFRPHSYVIVARGTGNAAERYLRAVEPELESNPAKYYEMLLSAYTYTGFTANTSLTNFYKNMVSESTQPLAVLADISKFEKSDDINMDNSSYQEKGREFPLEGDFKAGDMPKVGTIKSEVMGLAVFNGSKMVGELDGEETQLQLMLEGNFGYSYVTIPDPEAEDYVVLLNIKQNRKPKRKVEIVDEKPHIKVNIYLEADILSIQSGVNYESLEKVKILEDAAEKFFEKGFLRMLKKTAKEFKSDIAGFGKEMKGKFLTWDEWTNFNWIEKYPDSEFEVDVDLKIRRPGLMLRTYPAAGTEVGEE	soluble
MTEEFNESMINDIKEGDKVTGEVQQVEDKQVVVHINGGKFNGIIPISQLSTHHIDSPSEVVKEGDEVEAYVTKVEFDEENETGAYILSRRQLETEKSYSYLQEKLDNNEIIEAKVTEVVKGGLVVDVGQRGFVPASLISTDFIEDFSVFDGQTIRIKVEELDPENNRVILSRKAVEQEENDAKKDQLLQSLNEGDVIHGKVARLTQFGAFIDIGGVDGLVHVSELSHEHVQTPEEVVSIGQDVKVKIKSIDRDTERISLSIKDTLPTPFENIKGQFHENDVIEGVVVRLANFGAFVEIAPGVQGLVHISEIAHKHIGTPGEVLEPGQQVNVKILGIDEENERVSLSIKATLPNEDVVESDPSTTKAYLENEEEDNPTIGDMIGDKLKNLKLLEHHHHHH	soluble
MKERKFINEAVKRLLVCEYVVKETENAGFGNMVMKRTPFGTNITLYVNRPGLVIGRRGSKVQQMTDTLEKKYGIETPQIEVKDVKDPDLNPSVIAKKIALSLEKGWSYRKAGNTSLNRTIQAGAKGVLIKISGKISGERARYQKFIYGNVKYSGEPGSKGMITGFSTAKLKVGILGVTVKILNPEYKLPDVFSIENITGGEEVGTESKADQTDVEGRETGNAEES	not soluble
MAHHHHHHMRRYVKPSNIVGANISHPVDIFKMTVEHRVQCGSCHKVRYTRETDCCLSLPIPLDPNLKNSDGNPKQTEEEIFASRPHISLDACLGSLMQATDIDCRCSACGIPVTYCKTTRLRTFPDVLPIFLRRAQFDMETMSVRKLDVFVDVPLELDLEFLRGKGLQSDEVSMPEAREDLPHKPTSSSMKTVDEEALAMLLSMGIEETVARYALLQTGMNAERAVDYVFSRENIAEEAGLAEISTTASESQPVHVLDGPAKYRLHAMISHVGASAKTGHYVCHICDAQTGKWLLFNDEKVAESLNPPFSMAFLYFYKRVGK	soluble
MSLKITAADVVVTSPGRNFVTLRITTEDGLTGLGDATLNGRELAVEAYLREHVAPLLLGRDAHAVEDTWQYLYRGAYWRRGPVTMAAVAAVDMALWDIKGKAAGMPVYQLLGGACRTGALAYGHASGRDIPELLDSVREHLADGFRAVRIQSGIPGLDSVYGVAASAAGDGDRYDYEPARRTGAAHPRPTEETWDTRAYLRHMPTVFEAVRHTFGPELPLLHDGHHRMTPIQAARLGKDLEPYDLFWLEDATPGEDQGALRLIREHTTTPLAIGEVFNSVHDYTTLLQERLIDYVRSAVTHTGGITAVRKLLDMAAVYGIKSGMHGPTDISPVGMAAALHLDLAVHNFGIQEYMRHAPDTLEVFRTSYRFEDGLLHPGEAPGLGVELDDGAAARFPYEPAYLPVNRLSDGTVHDWEGHHHHHH	not soluble
MRVHEPNIIFEDDKHKFIWLGLDESENEKGILTNQYLIVHEGKGYLLDPGGYFVFERVYQNVTRFVKPENIVTILYSHQDPDVIGSLNLWVDLAPNATFYVSALWERFLPHLGAELKGRIVDIPDEGMSIDFIRAIPAHFMHSPGNFHYYDTYAKIYFSGDLGAAIFKDKWYLFVEDFESHIKLMEPFHRRYIASKKAIDIWLKKIEGLEINVIAPQHGAIFEGENAKKFIQWLRNLDKVGLDLME	soluble
IDLSNALPGSRRGFLKGAAVVGLTIGFQWSGARRALAAALPDAGFAPNAFLRIAPDDSVTVIAKHVEMGQGAYTGIATIVAEELDADWSKVRVESAPADAKRYANLAFGTMQGTGGSSAMANSWMQLREAGAKARAMLVEAAARQWQVPAAELRTRDGFVEHPTSQRKASYGSLAAAAAELPVPEKVQLKDPKDFRLIGHQAPRVDVPGKTDGSAQFTLDVSLPGMLVALLQRPPLFGATVKSFDATATRAIPGVVEVVQVPHGVAVVAKGFWAAKQGRDALKVEWDESKAEKRGSEALMAEYRKLAEQPGKPARRDGDAAKAVAGATRRIAASYEFPFLAHAPMEPLDAVVRLTADSCEIWAGDQFQTVDQGNAARTAGLKPEQVKINTLYAGGSFGRRANAWSDYIVEAVSIAKALGANGVPVKLQWTREDDIHGGFYRPMYYHRLEAGLDADGKLVGWQHRIVGQSILEGTPFAAVMVKDGIDATSVEGAANLPYAVPNVSVELSTTQVGVPVLWWRVVGSSHTVYAVEAFIDEAAQAAGKDPYLFRRDLLAEQPRLRGVLELAAEKAGWDPSRPLPAGRGRGIAVTEAFKTFVAQVVEVSVDKDGKLKVERVVCAVDCGIPINPDVIAAQMEGGIGFGLGAILHSAITLKDGKVEQNNFDGYQVLRIAEMPKVEVHIVPSGEAPTGVGEPGVAPIGPALANAIFAATGQRLYNLPFPTSFA	not soluble
MGSDKIHHHHHHMKHFKYGAIALTLISGLAACGGSGSDEPEVVVPETGFSFDADALIVNLSDEVIVKGYSTLADRGEALLQATQTLVATPTQANLEAAQSAWKAARQPWEQGESHIFGPVDSLGIDPHLDSWPLNTTDLKTVLINSSGFDAETIKGWNDDVQGFHTMEFLLFGDGMDDNVKQIDELTANERDYLMGLAEVFRDYTKQLADAWLVSHDGQSGKAYGELLKSPGVDGNTFYSSQVGVLEELIKGMIGIVDEVGNGKIADPFGGSLASADTSKVESQYSWNSLTDFSDNIIGVRNVYQGEFTGEADKQGIIDFVRAADSELASRIAAEIDAAILQIHAIEGTDKMPFRQAIKDEAGRARIQKAVDALATLQASLENQVLPLLKEWKV	not soluble
SGELLGTLSISHDVTEWHKIQQNLRDEMERRKDTEVALAQRDTILQTILDASPDSIGIFNENMVYQACNKPFVNALGISEVSDLIGKRLQDVIPVEMYTRLETSDLHALRQAEPVRYIDKVVSSDGHITWFDVVKSPFKDKA	not soluble
MTDKKTTEKKETETAATFTEELTAVLEEIKEEPVKEKKKGEIVTIVNETDIQIGEREYRIVKNHRDAFDPERLGERFSEVLARYDYIVGDWGYEQLRLRGFFDTSNRRAAPDQRIDTLEDYLYEYCNFGCAYFVIERTGERKEKTTHRRRRHKKNNRSNAFVEEKSAPANKNSKPVIRTRKEENKKTTTPKQPSPKKSGKGFTIRQREELEHHHHHH	soluble
MAHHHHHHMPSPQSLTGTPRSLQHAPLPAQVVRDALPLRRDVSDLLPVEQLRVLHVLTIAGMPRPHNTHSATISCRLSSPIMSATPNAYWRTCSMRCISVPSLCLEQTLPSSQSTAWMPREAADRSSVCGRSKCAETTATLTPSDISTHSTLPHKRAVPWEREVRRTVLA	not soluble
MGSDKIHHHHHHMIMATLKDIAKLAKVSQATVSRVLNKDETLSVSQKTKHRILMVADELGYQKHLKTTNSPQVRQKIAIVQWYSQQEELNDLYYYSIRIGIEKRAQELDYDIVRYFDNDISKVSADIVGLIAIGKFSTYQIAELEKLSDKLIFVDSDTLNAGYPCVMTDFDNAVVKVLDYFLDHGLTKIGMIAGEEKTTDGRELLIDQRFRTFRNYAYEQDIYNPNYIFIGDFSAQTGYHLMKKAIKELKENLPQAFFIANDSLAIGALRALQEANIPVPNRVSLISFNDTALTKQVFPALSSITVFTKEMGRTAVDILNRQILNPDIIPSMTRLTTQLTLRESSI	not soluble
MDPSAAFRSFPTQERGILLADTYKPLSLYAADVQVRLSGSAAQVILSLEYVNETNKLVRAIAAYPAPSSYQLQCATLQGPAREISARSYVRSRPLRSVEAGSALCAEPLVDTAVSTVATQSVPWDVSPGESVLMKAVYHAPISVTHRTGEIVFTLPASLIPAVQRPPDVQRGYMKFLDARSQLRHLAQQGGSLRVCVDAQLLVPLRGVVTLEKGPEVVPEMGVTGTSVNVHYVGDTHFQMTYHDDLPKTAYMQVPLCVRAPVAETSEPLRLHTVAASLPPTSAPSDHPTAEVAAAMVVSIAPFLANCPINAEIMFVVDVHSAALGARAAESVMSAIRSLNGTASLVNVILCRDAHRGGAVSLLPDESVQSSAVPQESMLAFMKEEGVQTSSSKGPATLSPHLPSLLHDITTGRGITTSIPAGYVRNVIVLSDGGSQPVDADAVAMVCQVTNAGRACRVHAVALAATADHAVLEALAEACGGCFASAAASGSSEAGGSAVDEAVQAAVSAAAVPCLVDIRTKWDVTGGDIAVASSVQAAAAAPSPLRMATDADGGSIACVPHGTQRLLYGLLASANSQLAVRVFGRVGEMRLEYTASSAIQPPPQSDAADTAAAADATDEESGRAPPMLMTAAAAARIAYLTHILHTTSEDEALEVIALSKRYMLPSPYTTLTDGNSGPGGEHKLGGVVHLPSMQAAAHVELAIRARRVELQAAAALRALRPA	soluble
SNSALYNVDAGHRAVIFDRFRGVQDIVVGEGTHFLIPWVQKPIIFDCRSRPRNVPVITGSKDLQNVNITLRILFRPVASQLPRIYTSIGEDYDERVLPSITTEILKSVVARFDAGELITQRELVSRQVSDDLTERAATFGLILDDVSLTHLTFGKEFTEAVEAKQVAQQEAERARFVVEKAEQQKKAAIISAEGDSKAAELIANSLATAGDGLIELRKLEAAEDIAYQLSRSRNITYLPAGQSVLLQLPQ	soluble
AIADFSENASGIPAEELAFPEIIELNVGGQVYITRYLTLTSVPDSLLWKMFSQKSSKDLARDTKGRFFIDRDGFLFRYILDYMRDQQLVLPEHFPEQGRLQREAEFFNLPELVQLLAPKISKQNTLGDDGCQTDQDESSPGANITCNLSSLGAYSSLGAATADGQRSGFITIGCRGSYTLGRDCQTDAKFRRVARIMVCGKTSLAKEVFGETLNESHDPDRQPDRYTSRYYLKFTSLEQAFDRLADAGFHMVACNSTGTCAFAHVQTDDKIWTSYNEYVFYRE	soluble
MKKAALMLITFLGLTACSQGVTSMPDRTQTPCGNKPNCVSTQDQREEHHLEPFTLTESATLDAIEQAALQLSGAKTAEKDGNYLRIECTSKIMRFVDDLELKIDGNTLIVRSESRVGYSDFGVNRKRAEQLRTELSKAELIKLEHHHHHH	not soluble
HMGARASVLSGGELDKWEKIRLRPGGKKQYKLKHIVWASRELERFAVNPGLLETSEGCRQILGQLQPSLQTGSEELRSLYNTIAVLYCVHQRIDVKDTKEALDKIEEEQNKSKKKAQQAAADTGNNSQVSQNY	soluble
